Experimental data published in EP3088890B1 (Chugai Seiyaku Kabushiki Kaisha, dated 2020).
Each block holds one binder with its values, some of them ahead of it.

Experiments:
[1] = molecular target: T1, AW5, C-terminally His-tagged recombinant product of positions 1 to 357 of GPC3 (human, UniProt P51654 25-357); assay: Western blot, pellets of CHO cells expressing the product
T1 construct: Expressed in CHO cells, cell pellets used in Western blot; The range is as printed and starts at position 1; also called AW5 (1-357); not shown: C-terminal His tag
T1 sequence (P51654 25-357): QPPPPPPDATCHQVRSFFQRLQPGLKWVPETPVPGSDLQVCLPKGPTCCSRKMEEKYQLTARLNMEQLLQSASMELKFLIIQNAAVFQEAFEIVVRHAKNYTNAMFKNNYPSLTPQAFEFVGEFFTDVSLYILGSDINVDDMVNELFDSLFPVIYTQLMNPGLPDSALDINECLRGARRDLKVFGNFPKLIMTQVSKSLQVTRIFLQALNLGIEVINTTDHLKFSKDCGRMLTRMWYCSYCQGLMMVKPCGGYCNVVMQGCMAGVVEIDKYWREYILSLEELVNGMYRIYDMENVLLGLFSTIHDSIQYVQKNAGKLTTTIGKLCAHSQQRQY

[2] = molecular target: GPC3 core (sGPC3-His) protein (human) (UniProt P51654); assay: competition ELISA on plate-bound sGPC3; unlabeled GT165 (100-fold) against competitor biotin-labeled GT30; signal of the labeled antibody
Chain of GPC3 core (sGPC3-His) protein (human) (P51654 25-563 S495A/S509A): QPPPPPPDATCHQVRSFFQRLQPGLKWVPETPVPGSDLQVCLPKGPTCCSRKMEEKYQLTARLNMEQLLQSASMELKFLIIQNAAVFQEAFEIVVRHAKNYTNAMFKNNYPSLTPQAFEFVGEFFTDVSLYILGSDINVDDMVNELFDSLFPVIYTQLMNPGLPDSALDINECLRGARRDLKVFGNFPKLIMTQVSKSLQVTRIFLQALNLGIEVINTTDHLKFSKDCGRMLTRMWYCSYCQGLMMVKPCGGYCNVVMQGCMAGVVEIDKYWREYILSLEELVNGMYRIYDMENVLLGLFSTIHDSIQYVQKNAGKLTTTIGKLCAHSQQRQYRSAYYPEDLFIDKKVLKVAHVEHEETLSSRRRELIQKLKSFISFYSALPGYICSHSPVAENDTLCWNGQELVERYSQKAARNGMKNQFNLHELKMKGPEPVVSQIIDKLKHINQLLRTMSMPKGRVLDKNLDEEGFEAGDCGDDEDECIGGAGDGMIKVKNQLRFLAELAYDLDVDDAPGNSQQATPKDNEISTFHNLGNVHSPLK

[3] = molecular target: GPC3 core (sGPC3-His) protein (human) (UniProt P51654); assay: competition ELISA on plate-bound sGPC3; unlabeled GT165 (100-fold) against competitor biotin-labeled GT114
[4] = molecular target: T2, GPC3 peptide 261-290 (SEQ ID NO: 14) (human); assay: peptide ELISA, peptide on plate
T2 construct: Synthetic 30-residue peptide of GPC3
T2 peptide: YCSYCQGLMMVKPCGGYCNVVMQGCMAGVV

[5] = molecular target: T3, GPC3 peptide 81-110 (SEQ ID NO: 5) (human); assay: peptide ELISA, peptide on plate
T3 construct: Synthetic 30-residue peptide of GPC3
T3 peptide: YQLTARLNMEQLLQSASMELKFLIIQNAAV

[6] = molecular target: GPC3 core (sGPC3-His) protein (human) (UniProt P51654); assay: competition ELISA on plate-bound sGPC3; unlabeled GT165 (100-fold) against competitor biotin-labeled GT607; signal of the labeled antibody
[7] = molecular target: GPC3 core (sGPC3-His) protein (human) (UniProt P51654); assay: competition ELISA on plate-bound sGPC3; unlabeled GT165 (100-fold) against competitor biotin-labeled GT165; signal of the labeled antibody
[8] = molecular target: GPC3 core (sGPC3-His) protein (human) (UniProt P51654); assay: competition ELISA on plate-bound sGPC3; unlabeled GT165 (100-fold) against competitor biotin-labeled GT114; signal of the labeled antibody
[9] = molecular target: GPC3 core (sGPC3-His) protein (human) (UniProt P51654); assay: competition ELISA on plate-bound sGPC3; unlabeled GT165 (100-fold) against competitor biotin-labeled GT165
[10] = molecular target: GPC3 core (sGPC3-His) protein (human) (UniProt P51654); assay: competition ELISA on plate-bound sGPC3; unlabeled GT165 (100-fold) against competitor biotin-labeled GT30
[11] = molecular target: T1, AW5, C-terminally His-tagged …; assay: Western blot analysis, CHO cell pellets
[12] = molecular target: GPC3 core (sGPC3-His) protein (human) (UniProt P51654); assay: competition ELISA on plate-bound sGPC3; unlabeled GT607 (100-fold) against competitor biotin-labeled GT30
[13] = molecular target: GPC3 core (sGPC3-His) protein (human) (UniProt P51654); assay: competition ELISA on plate-bound sGPC3; unlabeled GT607 (100-fold) against competitor biotin-labeled GT165
[14] = molecular target: GPC3 core (sGPC3-His) protein (human) (UniProt P51654); assay: competition ELISA on plate-bound sGPC3; unlabeled GT607 (100-fold) against competitor biotin-labeled GT30; signal of the labeled antibody
[15] = molecular target: GPC3 core (sGPC3-His) protein (human) (UniProt P51654); assay: competition ELISA on plate-bound sGPC3; unlabeled GT607 (100-fold) against competitor biotin-labeled GT165; signal of the labeled antibody
[16] = molecular target: GPC3 core (sGPC3-His) protein (human) (UniProt P51654); assay: competition ELISA on plate-bound sGPC3; unlabeled GT607 (100-fold) against competitor biotin-labeled GT607; signal of the labeled antibody
[17] = molecular target: GPC3 core (sGPC3-His) protein (human) (UniProt P51654); assay: competition ELISA on plate-bound sGPC3; unlabeled GT607 (100-fold) against competitor biotin-labeled GT114; signal of the labeled antibody
[18] = molecular target: GPC3 core (sGPC3-His) protein (human) (UniProt P51654); assay: ELISA on plate-bound sGPC3; biotin-labeled GT607, no unlabeled antibody
[19] = molecular target: GPC3 core (sGPC3-His) protein (human) (UniProt P51654); assay: competition ELISA on plate-bound sGPC3; unlabeled GT114 (100-fold) against competitor biotin-labeled GT607; signal of the labeled antibody
[20] = molecular target: GPC3 core (sGPC3-His) protein (human) (UniProt P51654); assay: competition ELISA on plate-bound sGPC3; unlabeled GT114 (100-fold) against competitor biotin-labeled GT165
[21] = molecular target: GPC3 core (sGPC3-His) protein (human) (UniProt P51654); assay: competition ELISA on plate-bound sGPC3; unlabeled GT114 (100-fold) against competitor biotin-labeled GT165; signal of the labeled antibody
[22] = molecular target: GPC3 core (sGPC3-His) protein (human) (UniProt P51654); assay: competition ELISA on plate-bound sGPC3; unlabeled GT114 (100-fold) against competitor biotin-labeled GT114
[23] = molecular target: GPC3 core (sGPC3-His) protein (human) (UniProt P51654); assay: competition ELISA on plate-bound sGPC3; unlabeled GT114 (100-fold) against competitor biotin-labeled GT30; signal of the labeled antibody
[24] = molecular target: GPC3 core (sGPC3-His) protein (human) (UniProt P51654); assay: ELISA on plate-bound sGPC3; biotin-labeled GT114, no unlabeled antibody
[25] = molecular target: GPC3 core (sGPC3-His) protein (human) (UniProt P51654); assay: competition ELISA on plate-bound sGPC3; unlabeled GT114 (100-fold) against competitor biotin-labeled GT30
[26] = molecular target: GPC3 core (sGPC3-His) protein (human) (UniProt P51654); assay: competition ELISA on plate-bound sGPC3; unlabeled GT114 (100-fold) against competitor biotin-labeled GT607

binding result [1]: no binding
O.D. 450 [2]: 0.846 O.D. 450
Inhibitory effect (%) [3]: 1%
binding result [4]: no binding (tested: 2 µg/mL)
binding result [5]: no binding (tested: 2 µg/mL)
O.D. 450 [6]: 1.25 O.D. 450
O.D. 450 [7]: 0.111 O.D. 450
O.D. 450 [8]: 2.28 O.D. 450
Inhibitory effect (%) [9]: 93%
Inhibitory effect (%) [10]: 54%
B1: GT165 antibody (antibody, IgG1, V domains shown)
VH: QVQLQQSGAELVGPGASVKISCKAFGYTFTNHHINWVKQRPGQGLDWIGYINPYNDYTNYNQKFKGKATLTVDKSSSTAYMELSSLTSEDSAVYYCARSDPAWFAYWGQGTLVTVSA
VL: DIQMTQSPSSLSASLGGKVTITCKASQDINKNIAWYQHKPGKGPRLLIWYTYTLQPGIPSRFSGSGSGRDYSFSISNLEPEDIATYYCLQYDNLPFTFGTGTKLEIKR

binding result [11]: binds
Inhibitory effect (%) [12]: < 0%
binding result [4]: no binding (tested: 2 µg/mL)
binding result [5]: no binding (tested: 2 µg/mL)
Inhibitory effect (%) [13]: 92%
O.D. 450 [14]: 2.06 O.D. 450
O.D. 450 [15]: 0.129 O.D. 450
O.D. 450 [16]: 0.135 O.D. 450
O.D. 450 [17]: 1.13 O.D. 450
O.D. 450 [18]: 2.18 O.D. 450
B2: GT607 antibody (antibody, IgG1, V domains shown)
VH: EVQLVESGGDVVRPGGSLKLSCAASGFTFSSYGMSWVRQLPDKRLEWVASVGNGGSYRYYPENLKGRFTISRDNTKNTLYLQISGLKSEDTAIYYCARRGAFPYFDVWGAGTTVTVSS
VL: QIVLTQSPAIMSASPGEKVTLACSASSSVTYMHWYQQKSGTSPKRWIYETSKLASGVPPRFSGSGSGTSYSLTISTMEAEDAATYYCQQWSSNPLTFGAGTKLELKR

binding result [11]: binds
O.D. 450 [19]: 0.307 O.D. 450
Inhibitory effect (%) [20]: < 0%
O.D. 450 [21]: 1.82 O.D. 450
Inhibitory effect (%) [22]: 89%
binding result [4]: no binding (tested: 2 µg/mL)
binding result [5]: no binding (tested: 2 µg/mL)
O.D. 450 [23]: 2.14 O.D. 450
O.D. 450 [24]: 2.3 O.D. 450
Inhibitory effect (%) [25]: < 0%
Inhibitory effect (%) [26]: 86%
B3: GT114 antibody (antibody, IgG1, V domains shown)
VH: DVQLQESGPGLVKPSQSLSLTCTVTGYSITSDSAWNWIRQFPGNKLEWMAYIMYSGITSYNPSLKSRISITRDTAKNQFFLQLNSVTTEDSATYYCSRGYWYFDVWGAGTTVTVSS
VL: QIVLTQSPAIMSASLGEEITLTCSASSSVSYMHWYQQKSGTSPKLLIYSTSILASGVPSRFSGSGSGTFYSLTISSVEAEDAADYYCLQWITYRTFGGGTKLEIKR
